Test results taken from PMC4405178 (Biochemistry, 2015).

Tests used:
Assay in all cases: flow cytometry on cells
[1] = biological target: T1, full-length wild-type Ste2p (Saccharomyces cerevisiae, UniProt D6VTK4 1-431)
T1 sequence (looked up): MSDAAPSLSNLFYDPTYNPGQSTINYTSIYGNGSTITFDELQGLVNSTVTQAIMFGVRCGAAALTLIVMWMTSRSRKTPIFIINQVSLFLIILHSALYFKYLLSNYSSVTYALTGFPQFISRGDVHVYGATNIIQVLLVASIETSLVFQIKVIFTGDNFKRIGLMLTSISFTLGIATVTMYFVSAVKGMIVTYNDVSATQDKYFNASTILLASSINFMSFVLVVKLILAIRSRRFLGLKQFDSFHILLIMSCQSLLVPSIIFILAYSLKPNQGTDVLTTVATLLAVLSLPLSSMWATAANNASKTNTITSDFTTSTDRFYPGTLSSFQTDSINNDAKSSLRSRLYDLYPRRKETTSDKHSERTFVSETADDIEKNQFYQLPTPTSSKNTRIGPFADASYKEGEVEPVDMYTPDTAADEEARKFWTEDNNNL

[2] = biological target: T2, C-terminally truncated Ste2p F38Y (Saccharomyces cerevisiae, UniProt D6VTK4 1-303, F38Y)
T2 sequence (looked up): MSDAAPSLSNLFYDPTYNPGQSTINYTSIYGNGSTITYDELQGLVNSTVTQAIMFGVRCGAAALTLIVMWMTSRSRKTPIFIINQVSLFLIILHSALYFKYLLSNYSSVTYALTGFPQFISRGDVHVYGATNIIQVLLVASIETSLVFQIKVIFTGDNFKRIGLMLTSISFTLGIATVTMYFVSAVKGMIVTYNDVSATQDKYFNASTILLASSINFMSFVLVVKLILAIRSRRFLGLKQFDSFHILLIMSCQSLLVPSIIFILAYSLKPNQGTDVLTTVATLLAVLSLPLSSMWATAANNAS

full-length Ste2p V49D = biological target: T3, full-length Ste2p V49D (Saccharomyces cerevisiae, UniProt D6VTK4 1-431, V49D)
T3 sequence (looked up): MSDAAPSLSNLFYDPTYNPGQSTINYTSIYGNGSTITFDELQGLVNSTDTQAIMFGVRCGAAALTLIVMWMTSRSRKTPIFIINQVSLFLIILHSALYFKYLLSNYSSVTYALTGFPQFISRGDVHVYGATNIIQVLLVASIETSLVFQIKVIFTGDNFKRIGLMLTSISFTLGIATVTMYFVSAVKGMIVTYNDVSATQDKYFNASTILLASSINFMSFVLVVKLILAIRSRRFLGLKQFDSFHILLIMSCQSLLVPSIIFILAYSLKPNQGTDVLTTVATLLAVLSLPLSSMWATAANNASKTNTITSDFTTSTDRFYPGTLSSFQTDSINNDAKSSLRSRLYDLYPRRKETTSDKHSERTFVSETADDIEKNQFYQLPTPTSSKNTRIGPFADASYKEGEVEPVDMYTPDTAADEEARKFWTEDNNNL

[3] = biological target: T4, C-terminally truncated Ste2p V49D (Saccharomyces cerevisiae, UniProt D6VTK4 1-303, V49D)
T4 sequence (looked up): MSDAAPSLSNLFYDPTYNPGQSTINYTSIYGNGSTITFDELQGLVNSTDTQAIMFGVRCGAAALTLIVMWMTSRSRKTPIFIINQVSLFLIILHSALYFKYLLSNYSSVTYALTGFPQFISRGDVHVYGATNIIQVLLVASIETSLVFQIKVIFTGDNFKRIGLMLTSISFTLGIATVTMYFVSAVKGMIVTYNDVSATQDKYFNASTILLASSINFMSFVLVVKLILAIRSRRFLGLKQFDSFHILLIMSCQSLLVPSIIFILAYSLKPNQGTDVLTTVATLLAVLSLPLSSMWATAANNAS

[4] = biological target: T5, C-terminally truncated Ste2p H94Y (Saccharomyces cerevisiae, UniProt D6VTK4 1-303, H94Y)
T5 sequence (looked up): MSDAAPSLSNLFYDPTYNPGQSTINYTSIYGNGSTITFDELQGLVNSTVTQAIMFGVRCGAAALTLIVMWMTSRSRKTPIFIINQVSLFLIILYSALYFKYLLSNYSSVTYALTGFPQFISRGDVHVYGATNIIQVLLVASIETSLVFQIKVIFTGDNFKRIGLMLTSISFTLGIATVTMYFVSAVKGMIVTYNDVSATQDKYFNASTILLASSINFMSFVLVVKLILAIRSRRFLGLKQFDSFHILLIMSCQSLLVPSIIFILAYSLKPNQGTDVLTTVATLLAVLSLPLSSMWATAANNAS

[5] = biological target: T6, C-terminally truncated wild-type Ste2p (Saccharomyces cerevisiae, UniProt D6VTK4 1-303)
T6 sequence (looked up): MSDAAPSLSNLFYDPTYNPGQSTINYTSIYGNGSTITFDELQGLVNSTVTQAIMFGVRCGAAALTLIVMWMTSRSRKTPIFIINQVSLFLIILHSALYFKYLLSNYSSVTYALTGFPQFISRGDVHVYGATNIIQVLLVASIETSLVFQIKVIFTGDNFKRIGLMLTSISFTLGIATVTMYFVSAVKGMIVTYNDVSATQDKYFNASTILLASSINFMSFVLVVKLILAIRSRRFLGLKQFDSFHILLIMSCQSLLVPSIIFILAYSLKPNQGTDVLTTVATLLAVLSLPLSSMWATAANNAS

Kd [1]: 28 ± 4.7 nM | Kd [2]: 64 ± 7.9 nM | Kd (full-length Ste2p V49D): 49 ± 20 nM | Kd [3]: 35 ± 4 nM | Kd [4]: 90 ± 12 nM | Kd [5]: 45 ± 1.7 nM
B1: [K^7(NBD),Nle^12] α-factor (peptide)
chain: WHWLQLKPGQPMY
modifications: NBD (7-nitrobenz-2-oxa-1,3-diazol-4-yl) conjugated to the lysine at position 7; norleucine at position 12 in place of methionine
